This assay concerns the target human GARP-TGF-β1 complex (human) (UniProt Q14392).

Consider one substance from patent US20240042020A1.

Take livmoniplimab (antibody): the minimal concentration that maximally inhibits TGF-β1 release and signaling (reporter assay) came to 0.8 µg/mL.
